From paper PMC5702669 come the findings set out here.

The target in experiment [1] is full-length PfMyoA heavy chain with C-terminal biotin tag and FLAG tag (P. falciparum) (UniProt Q8IDR3).
Experiment [2] addresses skeletal muscle actin (UniProt P68135).

For “P. falciparum essential light chain (PfELC), untagged (from UniProt Q8IJM4 1-134) (natural protein)”, in experiment [1], the in vitro motility speed of PfMyoA-MTIP with PfELC, no calcium worked out at 3.8 μm/s and the in vitro motility speed of PfMyoA-MTIP with PfELC, with calcium (100 μM) was 3.8 μm/s. Regarding “PfMD T417D (phosphomimic at the TEDS site) (from UniProt Q8IDR3 1-768) (domain or fragment)”, the Km (actin concentration at half-maximal activity) of the actin-activated ATPase, 30 °C, 5 mM NaCl in experiment [2] stood at 4.4 µM. As to “PF3D7_0107000, putative centrin-1 (PfPC1), N-terminal His6 tag (natural protein)”, the in vitro motility speed of PfMyoA-MTIP with PF3D7 0107000 added, no calcium in experiment [1] was found to be 1.5 μm/s. On to “PF3D7_0627200, putative myosin light chain (PFF1320c) (from UniProt C6KTA8 1-139) (natural protein)”, for which, in experiment [1], the in vitro motility speed of PfMyoA-MTIP with PF3D7 0627200 added, no calcium was determined as 1.1 μm/s and the in vitro motility speed of PfMyoA-MTIP with PF3D7 0627200 added, with calcium was 0.6 μm/s.

Consider “PfMD T417A (phospho-null at the TEDS site) (from UniProt Q8IDR3 1-768) (domain or fragment)”, for which the Km (actin concentration at half-maximal activity) of the actin-activated ATPase, 30 °C, 5 mM NaCl in experiment [2] stood at 9.8 µM.

Take “PfMD, PfMyoA motor domain (Met-1–Lys-768) with C-terminal FLAG tag (from UniProt Q8IDR3 1-768) (domain or fragment)”: the Km (actin concentration at half-maximal activity) of the actin-activated ATPase, 30 °C, 5 mM NaCl in experiment [2] was 13 µM. For the substance “T. gondii essential light chain TgELC1 (from UniProt A0A125YUL9 1-87) (natural protein)”, in experiment [1], the in vitro motility speed of PfMyoA-MTIP with TgELC1, no calcium is 3.3 μm/s.
